Experimental data taken from article PMC9798253 (Protein Science : A Publication of the Protein Society, 2023).

Target: MBP-tagged ADD domain of DNMT3A (476-614) (human, UniProt Q9Y6K1 476-614)
Assay: peptide or protein array

EKSPGKLLVKMPFQT [TRD 214–228 peptide (WT, 15mer, E214-T228)]: binds.
